# Measured values taken from paper PMC2857972 (The Biochemical journal, 2008).
# B1: Bacillus megaterium SirC (precorrin-2 dehydrogenase), His6-tagged (enzyme)
# chain: MYTVMLDLKGRSVLVVGGGTIATRRIKGFLQEGAAITVVAPTVSAEINEWEAKGQLRVKRKKVGEEDLLNVFFIVVATNDQAVNKFVKQHIKNDQLVNMASSFSDGNIQIPAQFSRGRLSLAISTDGASPLLTKRIKEDLSSNYDESYTQYTQFLYECRVLIHRLNVSKSRKHELLTEIIDDQYRLSLVKQREFLQQIEKYK
# Target: the molecule itself
# Assay: crystal structure
protein,measurement,value
B1,stoichiometry N,2
